Source: patent publication US7605231B2, “Gelatin derivatives and high-molecular micelle comprising the derivatives” (NOF Corporation, priority 2002, dated 2009)

What was measured:
[1] = In vitro disintegration test in Japanese Pharmacopoeia first and second solutions, SDS-PAGE; type: physicochemical
Protocol: (§1) Of the various PEG-grafted gelatin derivatives prepared in Example 22, 50 mg of a gelatin derivative prepared by using 2-fold mols of PEG having a molecular weight of 5000 was dissolved in 1 ml of DDW (50 mg/mL). 500 μL of the resulting solution was added to 4.5 ml of each of a Japanese Pharmacopoeia first solution (pH 1.2), a second solution (pH 6.8), pepsin (10 U/mL)+first solution or trypsin (10 U/mL)+second solution and subjected to disintegration test. The test was carried out under the conditions based on Japanese Pharmacopoeia disintegration test. The decomposition of the gelatin was evaluated by carrying out SDS-PAGE of the sample prepared after the test. Further, 500 μL of the sample was added to 4.5 mL of DDW to prepare a control group.
(§2) 50 mg of gelatin, which was not subjected to PEG grafting, was dissolved in 1 ml of DDW. 500 μL of the resulting solution was added to 4.5 mL of each of DDW, first solution, second solution, pepsin+first solution and trypsin+second solution, respectively, and then, subjected to disintegration test. The test was carried out under the conditions based on Japanese Pharmacopoeia disintegration test. The decomposition of the gelatin was evaluated by carrying out SDS-PAGE of the sample prepared after the test.

pepsin = experiment: In vitro stability test to enzyme: pepsin + first solution, SDS-PAGE; type: in vitro ADME; conditions: pepsin (10 U/mL) + first solution
Protocol: as §1, §2

[2] = Micelle form by affinity column (HiTrap Blue HP) that adsorbs gelatin; type: physicochemical; conditions: pH 7.4 bonding buffer, 2M NaCl elution
Protocol: The forms of the core and the shell of micelle were studied using affinity column, which adsorbs gelatin. Namely, HiTrap (Trade Mark) Blue HP column (manufactured by Amersham Pharmacia Co., Ltd.) was washed with 10 ml of an isotonic phosphate buffer with a pH of 7.4 and thereafter, 0.5 ml of a PEG-grafted gelatin micelle solution was applied. 5 ml of the isotonic phosphate buffer with a pH of 7.4 was used as a bonding buffer and 5 ml of a 2M aqueous sodium chloride solution was used as an elution buffer. The solution was fractionated with each 0.4 ml portions and the gelatin in each of the fractions was measured by the Lowery method.
The forms of the core and the shell of the micelle was studied using affinity column in which gelatin was adsorbed. Namely, HiTrap (Trade Mark) Blue HP column (manufactured by Amersham Pharmacia Co., Ltd.) was washed with 10 ml of an isotonic phosphate buffer with a pH of 7.4 and thereafter, 0.5 ml of a PEG-grafted gelatin micelle solution was applied. 5 ml of the pH isotonic phosphate buffer with a pH of 7.4 was used as a bonding buffer and 5 ml of a 2M aqueous sodium chloride solution was used as an elution buffer. The solution was fractionated with each 0.4 ml portions and the gelatin in each fraction was measured by the Lowery method. […]

[3] = Solubilizing of paclitaxel; type: physicochemical; conditions: 30 μL of 10 mg/ml paclitaxel in ethanol + 500 μL of 2% aqueous solution
Protocol: A 10 mg/ml ethanol solution of paclitaxel was prepared as (a PTX solution).
A 2% gelatin aqueous solution was prepared as a gelatin solution.

macrophage = experiment: Test of macrophage adhesion property (SEM); type: cell-based, mouse; conditions: crosslinked with heating at 160° C. for 3 hours, cultured 24 hours
Protocol: 1 g of gelatin or a derivative thereof was dissolved in 10 mL of purified water while heating. This resulting polymer solution was injected into a PFA made laboratory dish and allowed to stand at 4° C. for 12 hours to conduct gelation sufficiently. The resulting gel was lyophilized and then subjected to cross-linking treatment with heating at 160° C. for 3 hours under reduced pressure in vacuum.
First, to 10-week old female ddy mouse, 2 ml of a previously sterilized Brewer's thioglycolate medium (manufactured by Difco Co.) was administered to intraperitoneal. After 5 days, the mouse was killed with blood-letting and 5 ml of PBS(−) cooled at 4° C. was administered intraperitoneal. After 5 minutes, about 4 ml of intraperitoneal effusion was recovered and was centrifuged at 8000 revolution/min for about 5 minutes to prepare a cell mass of effused macrophage. To the cell mass, 2 ml of RPMI1640 medium containing 10% FCS was added and sufficiently suspended.
Next, a specimen prepared in accordance with “the method of preparing the specimen for evaluating adhesion of macrophage” according to the above-mentioned (1) was sufficiently swelled with a RPMI1640 medium to prepare a specimen for evaluating the adhesion property of macrophage. […] Surface observation was carried out by a scanning electron microscope (Hitachi Type S-3000N) and the adhesion of macrophage was evaluated.

[4] = Critical micelle formation concentration (CMC) by PNA incorporation; type: physicochemical; conditions: isotonic phosphate buffer pH 7.4, PNA incorporation
Protocol: With regard to the PEG-grafted gelatin prepared, the critical micelle formation concentration (CMC) was measured. The CMC was measured by incorporating N-phenyl-1-naphtylamine (PNA) into the micelle. Using an isotonic phosphate buffer with a pH of 7.4, various concentrations—having PEG-grafted gelatin aqueous solutions were prepared. 0.1 ml of the PNA solution dissolved in methanol having a concentration of 5.0×10^−3M was added to 2 ml of the PEG-grafted gelatin solution and stirred for 2 minutes. Thereafter, the absorbance at a wavelength of 500 nm was measured using a spectrophotometer.
With regard to the PEG-grafted succinated gelatin prepared, the critical micelle forming concentration (CMC) was measured. The CMC was measured by incorporating N-phenyl-1-naphtyl amine (PNA) into the micelle. Using an isotonic phosphate buffer with a pH of 7.4, PEG-grafted succinated gelatin aqueous solutions with various concentrations were prepared. […] Thereafter, the absorbance at a wavelength of 500 nm was measured using a spectrophotometer.
Micelle solutions were prepared in accordance with the method of Example 3 from the PEG-grafted gelatin derivatives prepared in Example 22 and the CMC of each derivative was measured in accordance with Example 5.

trypsin = experiment: In vitro stability test to enzyme: trypsin + second solution, SDS-PAGE; type: in vitro ADME; conditions: trypsin (10 U/mL) + second solution
Protocol: as §1, §2

gelatin
lowering of the gelatin molecular weight ([1]; Japanese Pharmacopoeia first solution (pH 1.2)): a lowering of the gelatin molecular weight was confirmed | lowering of the gelatin molecular weight ([1]; Japanese Pharmacopoeia second solution (pH 6.8)): except for the control group and the second solution, a lowering of the gelatin molecular weight was confirmed | lowering of the gelatin molecular weight (pepsin): a lowering of the gelatin molecular weight was confirmed | adsorption to affinity column [2]: adsorbed to the affinity column | appearance on mixing with paclitaxel solution [3]: white precipitation | adhesion of macrophage to the surface (macrophage): tightly covered with the cells such as macrophage | CMC (whether admitted) [4]: CMC was not admitted | lowering of the gelatin molecular weight (trypsin): a lowering of the gelatin molecular weight was confirmed
